Assay results: patent US12465618B2, “Compositions and methods for degenerative disc regeneration” (University Health Network, priority 2015, dated 2025)

Assays:
Type in all cases: cell-based
rat NP cells = assay: Western blotting of rat NP cells treated with IL-1β/TNFα with or without inhibitors or growth factors; settings: rat-tail NP cells treated with IL-1β and TNFα, Western blot, FIG. 5g-5h
Description: After euthanasia, healthy rat lumbar/caudal spine IVDs, injured tail discs and bovine caudal IVD NPs were removed aseptically and the nucleus pulposus (NP) was removed separately and enzymatically digested according to methods established by the present inventors^16. Similarly, human degenerative disc NPs were enzymatically digested using Pronase (0.4%, 1 hr at 37° C.) followed by Collagenase II treatment (0.015%, O/N, 37° C.). The following day, the cells were filtered with a 70p cell strainer and cultured within a hypoxic incubator (NuAire, MN, USA) in 3.5% O2, 5% CO2, in Advanced Dulbecco's modified Eagle's medium (ADMEM) supplemented with 8% fetal bovine serum (FBS) and penicillin and streptomycin (100 U/mL). For treatments, the cells were either cultured in serum free ADMEM (no treatment controls) or treated with interleukin-1β (IL-1β, 10 ng/mL), tumor necrosis factor-alpha (TNFα, 50 ng/mL), connective tissue growth factor (CTGF, 10-100 ng/mL), Wnt-inducible soluble protein 2 (WISP2, 10-100 ng/mL) or transforming growth factor beta 1 (TGFβ1, 5-20 ng/mL) for various time points under hypoxic conditions.
Equal amounts of whole cell or tissue lysates prepared using RIPA lysis buffer were subjected to Western blotting as described earlier^18,19. Total lysates (30 μg) were resolved on 10% sodium dodecyl sulphate-polyacrylamide gels (SDS-PAGE) under reducing conditions and then proteins were electro-transferred onto polyvinyledendifluoride (PVDF) membranes (BioRad, CA). After blocking with 5% non-fat powdered milk in Tris-buffered saline (TBS, 0.1 M, pH=7.4), blots were incubated with rabbit or goat polyclonal/mouse monoclonal primary antibodies at 4° C. overnight. […] Blots were washed three times with TTBS for 15 minutes and protein bands were detected by the enhanced chemiluminescence method (BioRad, CA) on Kodak Hyperfilm.

[1] = test system: human degenerated disc NP cells; assay: MTT cell viability assay
Description: (§1) Nucleus pulposus cells (rat, bovine and human) were plated in 96-well flat bottom plates in order to evaluate the effect of treatment with growth factors in cell viability and proliferation assays. Rat NP cells were treated with CTGF, WISP-2 and TGFβ1 in a dose (1 ng/mL-100 ng/mL) and time dependent manner (24 hrs-96 hrs) to determine the optimum dose and time for the assessment of these growth factors on viability. Cell viability was determined using 3-(4,5-dimethylthiazol-2-yl)-2,5-diphenyltetrazolium bromide (MTT, Sigma-Aldrich, USA) as previously described^44. A BrdU-ELISA (colorimetric) assay (Cat #ab126556, Abcam) was used for determining the effect of treatment with CTGF or TGFβ1 on human and rat NP cells (healthy/injured) following the manufacturer's instructions. Briefly, NP cells were treated with CTGF or TGFβ1 alone or in combination for 48 hrs following addition of BrdU reagent O/N in each well. Incorporated BrdU in DNA of proliferating cells was determined using anti-BrdU antibody and quantified by ELISA as per the manufacturer's instructions.

[2] = test system: rat-tail disc NP cells (healthy/injured); assay: MTT cell viability assay; settings: CTGF 100 ng/ml, TGFβ1 10 ng/ml, 48 hrs-72 hrs
Description: as §1

[3] = test system: human degenerative disc NP cells; assay: Caspase 9 Lumi-Glo assay, cytokine induced; settings: 48 hrs
Description: Apoptosis induced in NP cells (rat and human) as result of treatment with pro-inflammatory cytokines (IL-1β and TNFα) was determined using Caspase 3/7 and Caspase 9 specific Lumi-Glo assays (Promega, Madison). Briefly, NP cells were plated and treated with either IL-1β alone or in combination with TNFα only or in presence of CTGF and TGFβ1 for 48 hrs, followed by addition of specific reagents for Caspase 3/7 and Caspase 9 as per the manufacturer's instructions. Cells were incubated for another 4 hrs at 37° C., and plates were read in a multi-well luminescence plate reader.

B1: WISP-2: Human recombinant Wnt-inducible soluble protein 2, Peprotech, identified in NCCM (protein, UniProt O76076 24-250, looked up)
CCN family member 5: QLCPTPCTCPWPPPRCPLGVPLVLDGCGCCRVCARRLGEPCDQLHVCDASQGLVCQPGAGPGGRGALCLLAEDDSSCEVNGRLYREGETFQPHCSIRCRCEDGGFTCVPLCSEDVRLPSWDCPHPRRVEVLGKCCPEWVCGQGGGLGTQPLPAQGPQFSGLVSSLPPGVPCPEWSTAWGPCSTTCGLGMATRVSNQNRFCRLETQRRLCLSRPCPPSRGRSPQNSAF
- expression of MMP-3, MMP-13 and Cox2 proteins in presence of growth factor (rat NP cells): reduced expression
- cell viability (MTT) [1]: no significant change
- cell viability (MTT) [2]: no significant change
- IL-1β and TNFα induced caspase 9 activity [3]: significant reduction
